Reference: the supplement of paper PMC9112550, “Optimization of the antimicrobial peptide Bac7 by deep mutational scanning” (BMC Biology, 2022)

System: Escherichia coli TOP10
Experiment: shrunken log2 fold change of peptide-encoding DNA abundance (4.5 h post-induction vs induction); higher = less antimicrobial activity (less host growth inhibition)
Details: time post-induction: 4.5 h; library: site-saturation at positions 5, 18, 19, 20
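Further: peptides expressed intracellularly from a pBAD plasmid library in pooled LB shake-flask culture, induced with 0.3% L-arabinose, DNA abundance read by NGS, three biological replicates, DESeq2 with apeglm shrinkage.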

Sequence | shrunken log2 fold change
RRIRFRPPRLPRPRPRPANGPRP | 0.0551
RRIRFRPPRLPRPRPRPAPNPRP | 0.408
RRIRFRPPRLPRPRPRPAQMPRP | 0.121
RRIRFRPPRLPRPRPRPAQQPRP | -0.0456
RRIRFRPPRLPRPRPRPARQPRP | 0.379
RRIRFRPPRLPRPRPRPARRPRP | 0.435
RRIRFRPPRLPRPRPRPARYPRP | 0.153
RRIRFRPPRLPRPRPRPASAPRP | 0.47
RRIRFRPPRLPRPRPRPASQPRP | -0.0114
RRIRFRPPRLPRPRPRPASVPRP | 0.344
RRIRFRPPRLPRPRPRPAVCPRP | 0.925
RRIRFRPPRLPRPRPRPAVHPRP | -0.0819
RRIRFRPPRLPRPRPRPAVTPRP | -0.347
RRIRFRPPRLPRPRPRPAWAPRP | 0.953
RRIRFRPPRLPRPRPRPAYIPRP | -0.601
RRIRFRPPRLPRPRPRPCACPRP | -0.0607
RRIRFRPPRLPRPRPRPCATPRP | 0.0672
RRIRFRPPRLPRPRPRPCCMPRP | -0.579
RRIRFRPPRLPRPRPRPCEHPRP | -0.00783
RRIRFRPPRLPRPRPRPCELPRP | 0.00618
RRIRFRPPRLPRPRPRPCFEPRP | -0.0728
RRIRFRPPRLPRPRPRPCFWPRP | 0.0499
RRIRFRPPRLPRPRPRPCGFPRP | 0.0163
RRIRFRPPRLPRPRPRPCKGPRP | 0.000407
RRIRFRPPRLPRPRPRPCKKPRP | -0.000348

Sequence | shrunken log2 fold change
RRIRFRPPRLPRPRPRPCKVPRP | 0.0595
RRIRFRPPRLPRPRPRPCMFPRP | -0.556
RRIRFRPPRLPRPRPRPCMLPRP | -0.591
RRIRFRPPRLPRPRPRPCMYPRP | -0.418
RRIRFRPPRLPRPRPRPCNGPRP | -0.212
RRIRFRPPRLPRPRPRPCNWPRP | 0.128
RRIRFRPPRLPRPRPRPCPFPRP | -0.988
RRIRFRPPRLPRPRPRPCQGPRP | -0.198
RRIRFRPPRLPRPRPRPCQMPRP | -0.981
RRIRFRPPRLPRPRPRPCSGPRP | -0.427
RRIRFRPPRLPRPRPRPCTFPRP | -0.0554
RRIRFRPPRLPRPRPRPCTQPRP | -0.549
RRIRFRPPRLPRPRPRPCVMPRP | -0.143
RRIRFRPPRLPRPRPRPCVRPRP | -0.0911
RRIRFRPPRLPRPRPRPCWEPRP | -0.356
RRIRFRPPRLPRPRPRPCYGPRP | -0.0414
RRIRFRPPRLPRPRPRPCYPPRP | -0.451
RRIRFRPPRLPRPRPRPDDMPRP | -0.0994
RRIRFRPPRLPRPRPRPDDWPRP | 0.044
RRIRFRPPRLPRPRPRPDEPPRP | 0.248
RRIRFRPPRLPRPRPRPDFAPRP | 0.0852
RRIRFRPPRLPRPRPRPDFTPRP | 0.138
RRIRFRPPRLPRPRPRPDFVPRP | -0.0292
RRIRFRPPRLPRPRPRPDGKPRP | -0.3
RRIRFRPPRLPRPRPRPDGWPRP | 0.13

Sequence | shrunken log2 fold change
RRIRFRPPRLPRPRPRPDIQPRP | -0.628
RRIRFRPPRLPRPRPRPDLHPRP | -0.274
RRIRFRPPRLPRPRPRPDLKPRP | 0.166
RRIRFRPPRLPRPRPRPDMTPRP | -0.0215
RRIRFRPPRLPRPRPRPDNEPRP | -0.0688
RRIRFRPPRLPRPRPRPDPPPRP | 0.37
RRIRFRPPRLPRPRPRPDQIPRP | -0.0948
RRIRFRPPRLPRPRPRPDQTPRP | 0.0441
RRIRFRPPRLPRPRPRPDQWPRP | -0.125
RRIRFRPPRLPRPRPRPDRHPRP | -0.164
RRIRFRPPRLPRPRPRPDRRPRP | -0.39
RRIRFRPPRLPRPRPRPDSKPRP | -0.788
RRIRFRPPRLPRPRPRPDTSPRP | -0.985
RRIRFRPPRLPRPRPRPDVCPRP | -0.1
RRIRFRPPRLPRPRPRPDVFPRP | -0.119
RRIRFRPPRLPRPRPRPDVKPRP | -0.0558
RRIRFRPPRLPRPRPRPDVMPRP | -0.0908
RRIRFRPPRLPRPRPRPDVNPRP | 0.00585
RRIRFRPPRLPRPRPRPDWHPRP | -0.152
RRIRFRPPRLPRPRPRPDYEPRP | -0.407
RRIRFRPPRLPRPRPRPDYHPRP | -0.935
RRIRFRPPRLPRPRPRPEAQPRP | 0.383
RRIRFRPPRLPRPRPRPEAWPRP | 0.00383
RRIRFRPPRLPRPRPRPECMPRP | 0.0416
RRIRFRPPRLPRPRPRPECRPRP | -0.0408
